In US20250127885A1 (University of Texas, published 2025):
Positions count from the first letter of the chain named. Names may count otherwise.

T1: HCMV gp34 ectodomain displayed on ExpiCHO cells (human cytomegalovirus (HCMV), UniProt P16809 24-182)
T1 construct: also called gp34-FLAG with a PDGFR anchor; not shown: C-terminal FLAG (M2) tag and PDGFR transmembrane domain
T1 sequence: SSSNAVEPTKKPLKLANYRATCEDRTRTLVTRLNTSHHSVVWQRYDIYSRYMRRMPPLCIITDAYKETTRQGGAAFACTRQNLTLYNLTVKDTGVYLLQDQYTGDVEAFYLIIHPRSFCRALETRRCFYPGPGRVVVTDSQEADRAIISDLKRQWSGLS

B1: anti-gp34 antibody 34-2 with murine IgG2a Fc (antibody, V domains shown)
VH: QVQLQQSGTELVKPGASVKLSCTASGFNIKDTYMHWVKQRPEQGLEWIGRIDPASDDTKYDPKFQGKAAITADTSSNTAYLQLSSLTSEDTAVYYCSKDGYYAYWGQGTLVTVSA
VL: DIVMTQSPASLAVSLGQRATISCRASESVDSYGNSFMHWYQQKPGQPPKLLIYRASNLESGIPARFSGSGSRTDFTLTINPVEADDVATYYCQQSYEVPRTFGGGTKLEIKR
notes: Variable domains on human CL and human CH1 joined to murine IgG2a Fc; also called antibody-mFc; not shown: human CH1 region; murine IgG2a Fc (mFc)
B2: anti-gp34 antibody 34-4 with murine IgG2a Fc (antibody, V domains shown)
VH: QVQLQQSGTVLARPGASVKMSCKASGYTFTAYWMHWVKQRPGQGLEWIGAIYPGNSDAGYNQKFKGKAKLTAVTSTSTAYMELSSLANEDSAVYYCTRWGNNSFWGQGTTLTVSS
VL: DIQMTQSPSSMYASLGERVTITCKASQDINSYLTWFQQKPGKSPKTLIYRANRLVDGVPSRFSGSGSGQDYSLTISTLEYEDMGIYYCLQYDEFPPTFGAGTKLELKR
notes: as for B1
B3: anti-gp34 antibody 34-5 with murine IgG2a Fc (antibody, V domains shown)
VH: QVQLQQSGAELVRPGTSVKVSCKTSGYAFTNYLIEWVKQRPGQGLEWIGVINPGSGGTNYNEKFKGKATLTADKSSSTAYMQLSSLTSDDSAVYFCVLQVGRLAYWGQGTLVTVSA
VL: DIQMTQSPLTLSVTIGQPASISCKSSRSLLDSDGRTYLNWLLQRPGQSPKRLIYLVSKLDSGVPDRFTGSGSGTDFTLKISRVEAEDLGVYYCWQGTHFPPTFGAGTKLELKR
notes: as for B1
B4: soluble wild-type HCMV gp34 ectodomain (receptor)
chain: T1 sequence
notes: Prone to aggregation; SEC-purified for the ELISA; also called WT gp34; wild-type (WT) gp34; not shown: C-terminal FLAG (M2) tag and Strep tag
B5: soluble HCMV gp34 ectodomain with C150S (gp34-M) (receptor)
chain: T1 sequence with C127S
notes: also called gp34 C150S; Soluble gp34 C150S; not shown: C-terminal FLAG (M2) tag and single Strep tag

How the values were obtained:
[1] = molecular target: T1, HCMV gp34 ectodomain displayed on …; experiment: flow cytometry on gp34-transfected ExpiCHO cells, antibody-mFc at 10 ug/mL, anti-mouse Fcγ AF647
Method: Then, hCMV gp34 was expressed on the surface of ExpiCHO cells using a mammalian expression plasmid containing a signal sequence, gp34 ectodomain with a C-terminal FLAG tag, and a PDGFR transmembrane domain. ExpiCHO cells were transfected using the gp34 transmembrane construct and cultured for two days at 37° C./8% CO₂. Successful expression of gp34 on the surface was detected by staining transfected and untransfected ExpiCHO cells with a 1:500 dilution of anti-FLAG PE antibody for 1 hour on ice (Agilent Technologies, Catalogue #PJ315-1). […] Fluorescence was detected using a BD Fortessa system.

[2] = molecular target: T2, human IgG1 Fc (no Fab arms) (human, UniProt P0DOX5 230-449 = IgG part); experiment: ELISA, human Fc coated, FLAG-tagged receptor titrated, anti-FLAG (M2)-HRP; curve assigned by paragraph 53 (top line at 10 ug/mL)
T2 construct: also called huFc; hu-Fc

[3] = molecular target: T2, human IgG1 Fc (no Fab arms); experiment: ELISA, human Fc coated, FLAG-tagged receptor titrated, anti-FLAG (M2)-HRP; curve assigned by paragraph 53 (lower line at 10 ug/mL)

Binder | binding result [1] | other results
B1 | binds | 
B2 | binds | 
B3 | binds | 
B4 |  | EC50 (read off the curve) [2]: ~0.1 µg/mL
B5 |  | EC50 (read off the curve) [3]: ~0.04 µg/mL
